Experiment: protease stability score; higher = more stable; yeast display proteolysis, trypsin and chymotrypsin;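 also: relative to predicted unfolded state with 0 unfolded-like and 1 meaning tenfold more protease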

Going from “DEHHEVAHRISTMLTHILMTGNEEWLSHLADPRVRSEIGDFEIHGREHMEELLHRILNKLGADHLRIHHIEIRIQGDFLIVKVHGRTHIGDKTVTHEIIFIIIKINGRWHLHSIWFDFE” to “DETEDTIHEAVKEFVTALMTGDEELLQKLMDPRTRLDYNGREIHGREEVIRLLLEMRIHHVEIKRIEIQGNKVHVDVKVDGEFNGQRRETKTIINATKINGRWVVQELVIR”, the protease stability score rises from 1 to 2.26.

Going from “DEDTRDVDRFLKRLEETLLTGDWNSIRELFDPNVKVIFNGRHRHGWQNMVDILREIRVTDVRMELDDVEQYGDKITIRGRLRFKGEINGKEQDTSLTIEIILIKVNGKWSVNSIEFR” to “SEMDEASKLALKLLEHMVRTGDEHLSEHLVDPHARLFQGDKVEWGRERMTRQLHEWRVRDFKLKRVHVYNGRIEVDGVLNGTVDGVDENRDVRLIITKIDGQWLIKSVIIE”, the protease stability score falls from 2.46 to 0.474.

Compared with “SETREIEEEWLRMMFENFITGDWKEIYKYADPNMRFTLSIGEKQERRHGRESMFHAFRRLEEDLGAKHVRLEDSTVYNGRVEINITLEDGDKHINRYIHIQVVNGRMHTIEVSFR”, “NEIEELVRESLELLAHALETGDEKLMTELADPDTRLIVNGRHLWGWELHLMFLTRFDHIETRIRLTEMEVQGEKVNSRGDMDVIVNVDGQRDRKRHEFIIISTKINGRWRLKSVILR” is higher in protease stability score: 0.628 for the first, 1.57 for the second.

Going from “NEDEEWIHKFWETLRKNIETGNEEEIEKLFDPNTRVEIGDKIIHGRRFIEHLKERADHVEEVHFQHKHIEIQGDKVQVHGELDHDIRIGDKRHRLRLDIIIILKKYNGRWHVHSFIIT” to “DEKHEFARRYYELEKKYLKTGDEEEWLKYVDPHVRVHVGDKDLVGMELAEEQWREIRYHHIDDKDMRIQGDKLHVKGRVDGTIGDKRHRVDMEVHIEIIDGRFKRIEVRIK”, the protease stability score falls from 1.2 to 0.76.

First: DELREESEHARQLYWRSIFTGDEDHFEKLLDPNARVYVNGKNLHGREDVLRVFHELRFRRLHWHDFDDQGDKLFFITKTVVDFNGVKMEQRTELYLRKVDGRWHVEEIRFE
Second: SEDEEESEFAVRELSKIIKTGDPDRFHHLADPNMRFIYGDKREHGMESWVSHLHRLGIENVEVHIHDWSVFNGQVVIDGRINVNGREVNAEFVMRKIDGRWHITEVRER
The protease stability score of the first is higher: 0.997 for the first, 0.611 for the second.

Going from “SEEERLLHEFWERLQHSHKTGNEEEYRKNIDPHARLDIDGREMHGWENFFHFFVEMRVHDLRIEDYRVQGDKVIVHTRVDGIVNGVRTEIHSELIIRKIDGRWFIEAMTIK” to “TEEDELLDKLAEIFSKVLKTGDFDELLSLFDPHTRLEVRQGDKEFHYHGREEVVRFWRHVRNRIDHSQLELHDVKSVNGVANSDSEVILRVNGKEIRIHHILLFVVINGRSKMVVIEFR”, the protease stability score rises from 1.07 to 1.68.

First: DEHDQHLKEWLDILLEVISTGDESRLQEMLDPNARLDVNGRKIHGRDEVLRAFHDHLDRFDHLHDLRIEHSNTVDGKAYIEGRDDGVVDGKRVFLRTRYFIITVNGKVHEVKIEID
Second: DEDKEHIDRSLEELRRSWKTGNEEDVLRLADPHVKMIYNGRHHIGRENFEEALKILLERVDHWEDFRITDRHRQGDKVELDVESEGLVNGVTKRTEMIFIILKIDGRWLLHSLEIR
The protease stability score of the first is higher: 1.92 for the first, 0.724 for the second.

Going from “SQLEVASTEALELLRFSLETGDWEFLLRLADPNTRIEINGVTFHGREDMEEIMEEKFRRFKNVKVELDVKEVHFQGDKVRIRVVEFWKVDGQEIFIDSRIVMIKVNGRWVYKELRVH” to “SEEEEEIERMFKDWSRAVRTGDEERYDHLADPNVRIHIGDKDVHGRENFIKYLHHIRIRDVRLRDFRIYDGRVELDIEVDRHVNGRDDRTQVIMVLLKFNGQWHVESVYVK”, the protease stability score rises from 0.7 to 1.2.

Going from “HEDDEMKKKWFEEWERRIHTGDEEEINKLADPHVRLEIGDKTRHGREEFTRYLWEFLYEFGANHVEIRYEEIRIINGVVHIRSRIHIHVDGRHIHLETHLIVFKFDGQWRLHTLHYK” to “SEHFEIALEILKLFLRSRHTGDWKTMEEMADPDVRLEVGEYTNHGWEEILRVLEELRFEIHFIHDHDVKFQGDKLHLDGHVDGVRRVDGQEVRIVSHIEIISVVVNGRAKSYSEHWV”, the protease stability score falls from 0.872 to 0.631.

Going from “HDQDESAKWVIEVLIRASYTGDFDMFIKYFDPNAKSLIDGKTFHGREDLKRHMDRFDHITHVRFHLRDRKMVGDKLIIHGQLEVHGYQGDWEIHMTRDVHIILRKVDGRWHIEELRLE” to “DERDREVHLASELLHRIVRTGNEEVFEDYLDPNVRVRVNGVESWGMDSFKHWLKEIRIHSHEVDHFDVIGDKLHFDTRVDGEFDGRRDIYKSEVHAEKINGRWIFKIVIFR”, the protease stability score falls from 2.18 to 1.19.

Compared with “DEIKRHFDEFIKVLREIIRTGDEEDLVRLMDPNVKLEVGDKRFHGMEVLDVLHKRADHLHEFDIHDWNIQGDKARVDLRLVGQFNGRTVIDNTTLWYEKIDGKWFIKSMRIH”, “DEEKEHAHRFYEEWVKAWRTGDFKHMLDLIDPNTKIVINGQEYHGMEMWSHIVEHLERLHGYRINHERIHHIRNIDGKVDSDVHVRGRYNGRDIDSRMHIHLDVVDGRIKSLEFRSK” is higher in protease stability score: 1.18 for the first, 1.55 for the second.

First: DEDQKETEEAIKELEKLSKTGNEHDFLRYFDPNMRVEIGDKEIWGRERALEIFHELGVKHIEVKRVDVQGDKIRMDTLLRVNGQELHTQVVALKINGQWILESYRVE
Second: SEKEHIMRRASQLIRDYLITGDWRSLEKLIDPNAQFEVNGRHIHGREEVSRIYLQHLNELGVERIDYIERDSDMQGEKVHTYGDLHVNGVTFHVIIFVLKIDGRWTIKKEIWSDK
The protease stability score of the first is lower: 1.09 for the first, 1.15 for the second.

With “SEEEEDVRIALLMLEHTMRTGDEEDTREMADPNVRVEVGDKELHGRELYVEWFHRLGVKHFDIREVRFIGDKVNIRGISHVNGRNYHVVLHARKIDGRWHLTLWEMR” the protease stability score was 1.41.

From the NTF2 design screens of Basanta et al. (2020)
